Data as given in PMC10786891, “Massively parallel profiling of RNA-targeting CRISPR-Cas13d”.
Changes are numbered by the printed parent chain. Names and notes keep the numbering of the source.

T1: EsCas13d, nuclease-dead (Eubacterium siraeum, UniProt B0MS50, R295A;H300A;R849A;H854A)
T1 sequence: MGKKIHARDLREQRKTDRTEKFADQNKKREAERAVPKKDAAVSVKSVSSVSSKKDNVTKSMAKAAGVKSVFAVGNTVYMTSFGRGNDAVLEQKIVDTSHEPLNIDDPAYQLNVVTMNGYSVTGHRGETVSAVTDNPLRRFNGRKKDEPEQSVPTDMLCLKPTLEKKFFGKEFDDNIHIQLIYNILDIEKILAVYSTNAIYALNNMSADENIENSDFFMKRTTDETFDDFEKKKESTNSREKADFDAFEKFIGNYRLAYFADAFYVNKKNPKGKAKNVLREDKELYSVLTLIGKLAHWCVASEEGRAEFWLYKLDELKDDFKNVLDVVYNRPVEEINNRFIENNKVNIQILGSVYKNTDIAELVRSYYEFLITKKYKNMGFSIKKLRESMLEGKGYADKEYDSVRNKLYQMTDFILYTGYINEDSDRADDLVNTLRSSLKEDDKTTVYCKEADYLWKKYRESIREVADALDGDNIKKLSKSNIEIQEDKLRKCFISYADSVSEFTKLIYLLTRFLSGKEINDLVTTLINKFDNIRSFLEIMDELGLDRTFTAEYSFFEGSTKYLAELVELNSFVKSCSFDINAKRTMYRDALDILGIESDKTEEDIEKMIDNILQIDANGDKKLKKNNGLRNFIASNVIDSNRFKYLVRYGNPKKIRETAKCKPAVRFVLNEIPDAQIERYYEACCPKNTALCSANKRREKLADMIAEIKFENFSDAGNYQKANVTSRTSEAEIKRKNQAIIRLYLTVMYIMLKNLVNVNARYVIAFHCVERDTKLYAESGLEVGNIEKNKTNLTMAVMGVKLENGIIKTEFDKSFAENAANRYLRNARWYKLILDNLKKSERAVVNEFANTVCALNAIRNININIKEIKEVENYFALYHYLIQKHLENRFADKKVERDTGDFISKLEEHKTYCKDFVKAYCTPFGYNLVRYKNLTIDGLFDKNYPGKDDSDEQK

B1: target 3 A5G,U22C (mixed)
RNA 1: CACCCGUGCAAAAUUGCAGGGGUCUAAAACGACCUGAAUAUUUCAGAUCAAA
RNA 2: GGGAAUGGAUCCACAUCUACGAAUUCGUUCUUGAUCUGAAAUAUUCGGGUCUGCAGAUCGGAAGAGCACACGU
B2: target 3 insC 3' of 22,insC 3' of 5 (mixed)
RNA 1: B1 RNA 1
RNA 2: GGGAAUGGAUCCACAUCUACGAAUUCGUUUCUUGAUCUGAAAUAUUCACGGUCUGCAGAUCGGAAGAGCACACGU
B3: target 3 A13G (mixed)
RNA 1: B1 RNA 1
RNA 2: B1 RNA 2 with C30U, A39G, G47A
B4: target 1 insC 3' of 9,insU 3' of 6 (mixed)
RNA 1: CACCCGUGCAAAAAUGCAGGGGUCUAAAACUGAGCGGAUAACCUCUCUAUGG
RNA 2: GGGAAUGGAUCCACAUCUACGAAUUCGUACCAUAGAGAGGUUACUCCUGCUCACCGAGAUCGGAAGAGCACACGU
B5: target 3 insU 3' of 3 (mixed)
RNA 1: B1 RNA 1
RNA 2: GGGAAUGGAUCCACAUCUACGAAUUCGUUUUUGAUCUGAAAUAUUCAGGUUCUGCAGAUCGGAAGAGCACACGU
B6: target 3 U2G (mixed)
RNA 1: B1 RNA 1
RNA 2: B1 RNA 2 with C30U, G47A, U50G
B7: target 3 U2G,A9U (mixed)
RNA 1: B1 RNA 1
RNA 2: B1 RNA 2 with C30U, A43U, G47A, U50G
B8: target 3 C6U,U7G (mixed)
RNA 1: B1 RNA 1
RNA 2: B1 RNA 2 with C30U, U45G, C46U, G47A
B9: target 3 insU 3' of 3,insU 3' of 3 (mixed)
RNA 1: B1 RNA 1
RNA 2: GGGAAUGGAUCCACAUCUACGAAUUCGUUUUUGAUCUGAAAUAUUCAGGUUUCUGCAGAUCGGAAGAGCACACGU
B10: target 3 insG 3' of 9,insA 3' of 6 (mixed)
RNA 1: B1 RNA 1
RNA 2: B9 RNA 2 with U44G, C46U, A47C, G48A, G49A, U50G, U51G
B11: target 3 insG 3' of 7,insU 3' of 5 (mixed)
RNA 1: B1 RNA 1
RNA 2: B9 RNA 2 with C46G, A47C, G48A, G49U, U50G, U51G
B12: target 3 insA 3' of 7,insG 3' of 6 (mixed)
RNA 1: B1 RNA 1
RNA 2: B9 RNA 2 with C46A, A47C, G49A, U50G, U51G
B13: target 1 A1G,U3A (mixed)
RNA 1: B4 RNA 1
RNA 2: GGGAAUGGAUCCACAUCUACGAAUUCGUACCAUAGAGAGGUUAUCCGCACGCCGAGAUCGGAAGAGCACACGU
B14: target 3 U22G (mixed)
RNA 1: B1 RNA 1
RNA 2: B1 RNA 2 with C30G, G47A
B15: target 3 insG 3' of 9,insG 3' of 7 (mixed)
RNA 1: B1 RNA 1
RNA 2: B9 RNA 2 with U44G, C46U, A47G, G48C, G49A, U50G, U51G
B16: target 3 C1A,U22G (mixed)
RNA 1: B1 RNA 1
RNA 2: B1 RNA 2 with C30G, G47A, C51A
B17: target 3 U2A,A9G (mixed)
RNA 1: B1 RNA 1
RNA 2: B1 RNA 2 with C30U, A43G, G47A, U50A
B18: target 3 insA 3' of 10,insA 3' of 6 (mixed)
RNA 1: B1 RNA 1
RNA 2: B9 RNA 2 with U44A, C46U, A47C, G48A, G49A, U50G, U51G
B19: target 3 insA 3' of 3,insA 3' of 2 (mixed)
RNA 1: B1 RNA 1
RNA 2: B9 RNA 2 with U50A, U52A
B20: target 3 insC 3' of 3,insU 3' of 3 (mixed)
RNA 1: B1 RNA 1
RNA 2: B9 RNA 2 with U50C
B21: target 3 G3C,A5C (mixed)
RNA 1: B1 RNA 1
RNA 2: B1 RNA 2 with C30U, G47C, G49C
B22: target 3 G4A,A13G (mixed)
RNA 1: B1 RNA 1
RNA 2: B1 RNA 2 with C30U, A39G, G47A, G48A
B23: target 3 insG 3' of 5,insU 3' of 3 (mixed)
RNA 1: B1 RNA 1
RNA 2: B9 RNA 2 with U50G
B24: target 1 insA 3' of 5,insU 3' of 1 (mixed)
RNA 1: B4 RNA 1
RNA 2: B4 RNA 2 with C44U, U45C, C47G, U48A, G49C, C50U, U51C, C52A, A53U
B25: target 3 insG 3' of 7,insA 3' of 6 (mixed)
RNA 1: B1 RNA 1
RNA 2: B9 RNA 2 with C46G, A47C, G48A, G49A, U50G, U51G
B26: target 3 U8A,A18G (mixed)
RNA 1: B1 RNA 1
RNA 2: B1 RNA 2 with C30U, A34G, U44A, G47A
B27: target 3 G3C,U8A (mixed)
RNA 1: B1 RNA 1
RNA 2: B1 RNA 2 with C30U, U44A, G47A, G49C
B28: target 3 C6U,A9G (mixed)
RNA 1: B1 RNA 1
RNA 2: B1 RNA 2 with C30U, A43G, C46U, G47A
B29: target 3 insC 3' of 4,insA 3' of 3 (mixed)
RNA 1: B1 RNA 1
RNA 2: B9 RNA 2 with G49C, U50G, U51A
B30: target 3 insA 3' of 8,insU 3' of 4 (mixed)
RNA 1: B1 RNA 1
RNA 2: B9 RNA 2 with U45A, C46U, A47C, G48A, U51G
B31: target 3 complement block 4-7 (mixed)
RNA 1: B1 RNA 1
RNA 2: B1 RNA 2 with C30U, U45A, C46G, G47U, G48C
B32: target 3 A11C (mixed)
RNA 1: B1 RNA 1
RNA 2: B1 RNA 2 with C30U, A41C, G47A
B33: target 3 insA 3' of 7,insU 3' of 3 (mixed)
RNA 1: B1 RNA 1
RNA 2: B9 RNA 2 with C46A, A47C, G48A, U50G
B34: target 3 U2G,A5G (mixed)
RNA 1: B1 RNA 1
RNA 2: B1 RNA 2 with C30U, U50G

target: T1, EsCas13d, nuclease-dead; test: crRNA (strand 1, pre-loaded); Mg2+; 40 mM Tris-HCl pH 7.5, 150 mM NaCl, 6 mM MgCl2, 1 mM DTT, 0.1% Tween-20, 0.2 mg/ml BSA; 25 C; 10 min per concentration, then washed; conditions: tags: His6-TwinStrep-SUMO cleaved; N-terminal SNAP kept (SNAP-Surface 488); label: 3' end held by stalled T7 RNA polymerase

B1 and B2 are within 1.5-fold of each other in Kd: 23.4 ± 3.5 nM for the first, 32 ± 4.5 nM for the second.

Going from B3 to B4, the Kd falls from 69 ± 20 nM to 16.6 ± 0.9 nM (4.2-fold).

B5 and B6 are within error of each other in Kd: 29.2 ± 3.4 nM for the first, 26.5 ± 2.7 nM for the second.

Compared with B7, B8 is 3.2-fold lower in Kd: 123 ± 29 nM for the first, 39 ± 6 nM for the second. The second binds more tightly here.

B9 and B10 are within error of each other in Kd: 81 ± 20 nM for the first, 90.5 ± 16 nM for the second.

B11 and B12 are within error of each other in Kd: 19.9 ± 2.2 nM for the first, 21.1 ± 1.4 nM for the second.

First: B13
Second: B14
The Kd of the first is 9-fold lower: 6.8 ± 0.6 nM for the first, 61 ± 13 nM for the second.

B15 and B16 are within 1.5-fold of each other in Kd: 63 ± 7 nM for the first, about 87 nM for the second.

First: B17
Second: B18
The Kd of the first is 1.5-fold lower: 47 ± 6 nM for the first, 71 ± 8.5 nM for the second. The first binds more tightly here.

B19 and B20 are within 1.5-fold of each other in Kd: 26.5 ± 6 nM for the first, 17.9 ± 2.1 nM for the second.

B21 and B22 are within error of each other in Kd: 96.5 ± 15.5 nM for the first, 112 ± 35 nM for the second.

Going from B23 to B24, the Kd falls from 30 ± 4.5 nM to 9.5 ± 1 nM (3.2-fold). The second binds more tightly here.

Going from B25 to B26, the Kd rises from 29.3 ± 3.75 nM to 63 ± 9.5 nM (2.2-fold). The first binds more tightly here.

Going from B27 to B28, the Kd falls from 63.5 ± 7.5 nM to 22.1 ± 1.9 nM (2.9-fold).

Compared with B29, B30 is 1.6-fold lower in Kd: 34 ± 4.05 nM for the first, 21.8 ± 3.6 nM for the second. The second binds more tightly here.

First: B31
Second: B32
The Kd of the first is 3.5-fold lower: 23.6 ± 1.75 nM for the first, 81.5 ± 34 nM for the second.

First: B33
Second: B34
The Kd of the first is 30-fold higher: 76 ± 32 nM for the first, 2.54 ± 0.36 nM for the second. The second binds more tightly here.
